Measured values: paper PMC12464271

Target: HPV-16 L1 capsid protein lacking the first twenty-nine N-terminal amino acids after the start codon (Human papillomavirus type 16) (UniProt P03101)
Assay: SEC + other: negative-stain TEM; purified L1 in phosphate buffer pH 7.5 with the reducing agent DTT (20 mM); aggregates disassembled into soluble pentamers

Work on “HPV-16 L1 capsid protein lacking the first twenty-nine N-terminal amino acids after the start codon (from UniProt P03101 1-505) (natural protein)” yielded a stoichiometry N of 5.
